# Patent publication US20220081480A1 (Merck KGaA, published 2022)
# T1: cyno TIM-3-His6 (cynomolgus monkey)
# T1 construct: Made in HEK293 cells; not shown: 6-His tag
# T1 chain: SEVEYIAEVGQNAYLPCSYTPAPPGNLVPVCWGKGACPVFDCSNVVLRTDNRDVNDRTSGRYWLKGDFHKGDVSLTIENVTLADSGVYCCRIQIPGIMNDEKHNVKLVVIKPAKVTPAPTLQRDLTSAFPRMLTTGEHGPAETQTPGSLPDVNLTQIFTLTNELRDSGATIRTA
# Legend:
# [1] = biological target: T2, wild-type TIM-3 (hu TIM-3), HEK-expressed (human, UniProt Q8TDQ0 22-202, limits assumed); assay: SPR
# T2 construct: Soluble protein of the mutagenesis study
# cyno TIM-3-His6 = biological target: T1, cyno TIM-3-His6; assay: SPR (Biacore)
# [2] = biological target: T3, human TIM-3 ECD with 6-His tag (hu TIM-3-His6) (human, UniProt Q8TDQ0 22-200); assay: SPR (Biacore)
# T3 construct: Novoprotein Cat# C356; the entry includes the His tag; also called hTIM3-His; human TIM3-His6
# [3] = biological target: T4, human TIM-3 on huTIM-3-CHO-S cells (human, UniProt Q8TDQ0 22-202); assay: FACS on CHO-S-hTIM-3 cells
# T4 construct: Membrane-anchored human TIM-3 ECD (NP_116171) stably expressed on CHO-S cells; also called CHO-S-hTIM3; CHO-S-hTIM-3; not shown: membrane anchor of the expression vector, not described
# [4] = biological target: T3, human TIM-3 ECD with 6-His tag (hu …); assay: SPR (Biacore), relative to 3903E11 (VH1.0, VL1.0)
Kd [1] [nM],Kd (cyno TIM-3-His6) [nM],Kd [2] [nM],MFI at 0.1 µg/ml [3] [MFI],MFI at 1 µg/ml [3] [MFI],MFI at 10 µg/ml [3] [MFI],Human TIM3 KD Ratio to Parent [4],Binder
51.6,,,,,,,"27.12E12 (antibody, V domains shown) VH: EVQLQQSGAELVRPGALVKLSCKASGFNIKDYYMYWMKQRPEQGLEWIGWIDPENVKTIYDPKFQGRATLTADTSSNTAYLQLSSLTSEDTAVYYCTRDFGYVGFFDVWGAGTTVTVSS VL: DIVMTQSQKFMSTSVGDRVSVNCKASQNVGTNVVWYQQKPGQSPKALIYSASYRYSGVPDRFTGSGSGTDFTLTISTVQSEDLAEYFCQQYNSYPLTFGGGTKLEIKR"
,6.5,2.7,148,1460,1870,0.78,"3903E11 (VH1.0, VL1.1) (antibody, human IgG1, lambda, Pair-wise combination of parental heavy chain and VL1.1-CL; IgG1 lambda) heavy: not shown light: QSALTQPRSVSGSPGQSVTISCTGTSSDVGGYNYVSWYQQHPGKAPKLMIFDVSKRPSGVPDRFSGSKSGNTASLTISGLQAEDEADYYCSSYADSVVFGGGTKVTVLGQPKAAPSVTLFPPSSEELQANKATLVCLISDFYPGAVTVAWKADSSPVKAGVETTTPSKQSNNKYAASSYLSLTPEQWKSHKSYSCQVTHEGSTVEKTVAPTECS"
,19.5,4.7,105,1050,,,"3903E11 (VH1.3, VL1.1) (antibody, human IgG1, lambda, IgG1 lambda) heavy: not shown light: QSALTQPRSVSGSPGQSVTISCTGTSSDVGGYNYVSWYQQHPGKAPKLMIFDVSKRPSGVPDRFSGSKSGNTASLTISGLQAEDEADYYCSSYADSVVFGGGTKVTVLGQPKAAPSVTLFPPSSEELQANKATLVCLISDFYPGAVTVAWKADSSPVKAGVETTTPSKQSNNKYAASSYLSLTPEQWKSHKSYSCQVTHEGSTVEKTVAPTECS"
,19.9,6,87,958,,,"3903E11 (VH1.3, VL1.2) (antibody, human IgG1, lambda, IgG1 lambda) heavy: not shown light: SYELTQPRSVSGSPGQSVTISCTGTSSDVGGYNYVSWYQQHPGKAPKLMIYDVSKRPSGVPDRFSGSKSGNTASLTISGLQAEDEADYYCSSYADSVVFGGGTKVTVLGQPKAAPSVTLFPPSSEELQANKATLVCLISDFYPGAVTVAWKADSSPVKAGVETTTPSKQSNNKYAASSYLSLTPEQWKSHKSYSCQVTHEGSTVEKTVAPTECS"
,5.6,1.8,148,1400,1930,0.52,"3903E11 (VH1.2, VL1.1) (antibody, human IgG1, lambda, IgG1 lambda) heavy: not shown light: QSALTQPRSVSGSPGQSVTISCTGTSSDVGGYNYVSWYQQHPGKAPKLMIFDVSKRPSGVPDRFSGSKSGNTASLTISGLQAEDEADYYCSSYADSVVFGGGTKVTVLGQPKAAPSVTLFPPSSEELQANKATLVCLISDFYPGAVTVAWKADSSPVKAGVETTTPSKQSNNKYAASSYLSLTPEQWKSHKSYSCQVTHEGSTVEKTVAPTECS"
,17.9,7.6,154,1390,,,"3903E11 (VH1.1, VL1.1) (antibody, human IgG1, lambda, IgG1 lambda) heavy: not shown light: QSALTQPRSVSGSPGQSVTISCTGTSSDVGGYNYVSWYQQHPGKAPKLMIFDVSKRPSGVPDRFSGSKSGNTASLTISGLQAEDEADYYCSSYADSVVFGGGTKVTVLGQPKAAPSVTLFPPSSEELQANKATLVCLISDFYPGAVTVAWKADSSPVKAGVETTTPSKQSNNKYAASSYLSLTPEQWKSHKSYSCQVTHEGSTVEKTVAPTECS"
,19.3,6.4,105,957,,,"3903E11 (VH1.3, VL1.0) (antibody, human IgG1, lambda, IgG1 lambda) heavy: not shown light: SYELTQPRSVSGSPGQSVTISCTGTSSDVGGYNYVSWYQQHPGKAPKLMIFDVSKRPSGVPDRFSGSKSGNTASLTISGLQAEDEADYYCSSYADSVVFGGGTKVTVLGQPKAAPSVTLFPPSSEELQANKATLVCLISDFYPGAVTVAWKADSSPVKAGVETTTPSKQSNNKYAASSYLSLTPEQWKSHKSYSCQVTHEGSTVEKTVAPTECS"
,5.5,2.2,156,1510,1950,0.62,"3903E11 (VH1.2, VL1.0) (antibody, human IgG1, lambda, IgG1 lambda) heavy: not shown light: SYELTQPRSVSGSPGQSVTISCTGTSSDVGGYNYVSWYQQHPGKAPKLMIFDVSKRPSGVPDRFSGSKSGNTASLTISGLQAEDEADYYCSSYADSVVFGGGTKVTVLGQPKAAPSVTLFPPSSEELQANKATLVCLISDFYPGAVTVAWKADSSPVKAGVETTTPSKQSNNKYAASSYLSLTPEQWKSHKSYSCQVTHEGSTVEKTVAPTECS"
,8.6,3.4,140,1340,1930,,"3903E11 (VH1.0, VL1.2) (antibody, human IgG1, lambda, IgG1 lambda) heavy: not shown light: SYELTQPRSVSGSPGQSVTISCTGTSSDVGGYNYVSWYQQHPGKAPKLMIYDVSKRPSGVPDRFSGSKSGNTASLTISGLQAEDEADYYCSSYADSVVFGGGTKVTVLGQPKAAPSVTLFPPSSEELQANKATLVCLISDFYPGAVTVAWKADSSPVKAGVETTTPSKQSNNKYAASSYLSLTPEQWKSHKSYSCQVTHEGSTVEKTVAPTECS"
,6.7,2.7,162,1540,1930,,"3903E11 (VH1.0, VL1.3) (antibody, IgG1, IgG1 lambda) heavy: not shown light: QSALTQPRSVSGSPGQSVTISCTGTSSDVGGYNYVSWYQQHPGKAPKLMIYDVSKRPSGVPDRFSGSKSGNTASLTISGLQAEDEADYYCSSYADSVVFGGGTKVTVLGQPKAAPSVTLFPPSSEELQANKATLVCLISDFYPGAVTVAWKADSSPVKAGVETTTPSKQSNNKYAASSYLSLTPEQWKSHKSYSCQVTHEGSTVEKTVAPTECS"
,,4.5,82,1020,,,"3903E11 (VH1.3, VL1.3) (antibody, IgG1, IgG1 lambda) heavy: not shown light: QSALTQPRSVSGSPGQSVTISCTGTSSDVGGYNYVSWYQQHPGKAPKLMIYDVSKRPSGVPDRFSGSKSGNTASLTISGLQAEDEADYYCSSYADSVVFGGGTKVTVLGQPKAAPSVTLFPPSSEELQANKATLVCLISDFYPGAVTVAWKADSSPVKAGVETTTPSKQSNNKYAASSYLSLTPEQWKSHKSYSCQVTHEGSTVEKTVAPTECS"
,22.3,7.4,,,,,"3903E11 (VH1.1, VL1.3) (antibody, IgG1, IgG1 lambda) heavy: not shown light: QSALTQPRSVSGSPGQSVTISCTGTSSDVGGYNYVSWYQQHPGKAPKLMIYDVSKRPSGVPDRFSGSKSGNTASLTISGLQAEDEADYYCSSYADSVVFGGGTKVTVLGQPKAAPSVTLFPPSSEELQANKATLVCLISDFYPGAVTVAWKADSSPVKAGVETTTPSKQSNNKYAASSYLSLTPEQWKSHKSYSCQVTHEGSTVEKTVAPTECS"
,6.3,1.6,114,1300,1900,,"3903E11 (VH1.2, VL1.2) (antibody, human IgG1, lambda, IgG1 lambda) heavy: not shown light: SYELTQPRSVSGSPGQSVTISCTGTSSDVGGYNYVSWYQQHPGKAPKLMIYDVSKRPSGVPDRFSGSKSGNTASLTISGLQAEDEADYYCSSYADSVVFGGGTKVTVLGQPKAAPSVTLFPPSSEELQANKATLVCLISDFYPGAVTVAWKADSSPVKAGVETTTPSKQSNNKYAASSYLSLTPEQWKSHKSYSCQVTHEGSTVEKTVAPTECS"
